{"source": "patent US20040122214A1", "about": "(TRIMERIS, published 2004)", "binders": {"B1": {"name": "conjugate comprising two molecules of SEQ ID NO:114 operably bound to PEG 6 (other)", "peptide": "{PEG‑6 diacid}-LTWQEWDREINNYTSLIYSLIEESQNQQEENEQELL", "modifications": "not fully specified; also: dimer: two peptides bound to PEG-6 diacid via N-termini"}}, "key": {"[1]": {"target": "gp41 of HIV-1 strain sensitive to SEQ ID NO:114 peptide (HIV-1)", "assay": "cell-based or functional assay"}, "[2]": {"target": "gp41 of HIV-1 strain resistant to SEQ ID NO:114 peptide (HIV-1)", "assay": "cell-based or functional assay"}}, "note": "No end group written: not given here.", "data": [{"binder": "LTWQEWDREINNYTSLIYSLIEESQNQQEENEQELL", "note": "[peptide comprising SEQ ID NO:114, synthetic peptide alone]", "values": [{"measurement": "IC50, in vitro infectivity assay", "setting": "[1]", "result": 0.005, "unit": "µg/mL"}, {"measurement": "IC90, in vitro infectivity assay", "setting": "[1]", "result": 0.034, "unit": "µg/mL"}, {"measurement": "IC50, in vitro infectivity assay", "setting": "[2]", "result": 2.4, "unit": "µg/mL"}, {"measurement": "IC90, in vitro infectivity assay", "setting": "[2]", "result": "> 20", "unit": "µg/mL"}]}, {"binder": "B1", "values": [{"measurement": "IC50, in vitro infectivity assay", "setting": "[1]", "result": 0.016, "unit": "µg/mL"}, {"measurement": "IC90, in vitro infectivity assay", "setting": "[1]", "result": 0.169, "unit": "µg/mL"}, {"measurement": "IC50, in vitro infectivity assay", "setting": "[2]", "result": 0.15, "unit": "µg/mL"}]}]}
